B1: VG9B380 (antibody, human IgG1, lambda, V domains shown)
VH: QVQLQESGPGLVKPSETLSLTCTVSGGSISNYYWSWIRQPAGKGLEWIGRIYPSGITSYDPSLKSRVTMSLDTSKNQFSLKLTSVTAADTAVYYCAGIMGTKGAFDIWGQGTMVTVSS
VL: QSALTQPASVSGSPGQSITISCTGTSSDVGGYNYVSWYQQHPGKAPKLLIYEVSNRPSGVSNRFSGSKSGSTASLTISGLQAEDEADYYCSSYTSTSVVFGGGTKLTVLG
B2: VG9B114 (antibody, human IgG1, kappa, V domains shown)
VH: EVQLVESGGDLVQPGGSLRLSCAASGFTFSRYDMHWVRQATGKGLEWVSAIGSAGDTYYPGSVKGRFTISRENAKNSLYLQMNSLRAGDTAVYYCARGKWELRDAFDIWGQGTMVTVSS
VL: DIVMTQSPSFLSASVGDRVTITCRASQGIHSYLAWYQQKPGKAPKLLIYVASTLQSGVPSRFSGSRSGTEFTLTISSLQPEDFATYYCQQLNSYPYTFGQGTKLEIKR
B3: VG9B81 (antibody, human IgG1, kappa, V domains shown)
VH: QVQLQESGPGLVKPSETLSLTCSVSGGSINTYYWSWFRQPAGKGLELIGRIYTSDNTNYNPSLKSRVTMSVDTSKNQFSLKLSSVTAADTAVYYCARYNWNYWYFDLWGRGTLVTVSS
VL: B2 VL with V3Q, G16R, T20N, H30S, V50T, R66G, Q90H, L104V
B4: VG9B208 (antibody, human IgG1, lambda, V domains shown)
VH: QVQLQESGPGLVKPSETLSLTCTVSGGSISGYYWSWIRQPPGKGLELIGYIFYSGSINYNPSLKNRVTISLDTSKNQFSLKLTSVTAADTAVYYCARVGKWELRSSFDIWGQGTMVTVSS
VL: QSVLTQPPSVSAAPGQKVTISCSGSTSNIGNNDVSWYQQLPGTAPKLLIYDNNKRPSGIPDRFSGSKSGTSATLGITGLQTGDEADYYCGTWDSSLSVWVFGGGTKLTVLG
B5: VG9B203 (antibody, human IgG1, lambda, V domains shown)
VH: QVQLVQSGPGLVKPSETLSLTCTVSGDSIGHYYWNWIRQPAGKGLEWIGRIYTSGSTNYNPSLKSRVTMSVDTSKNQFSLKLSSVTAADTAVYYCARSGGNFYWYFDLWGRGTLVTVSS
VL: B4 VL with T26S, D33Y, L40V, F63I, V98A, W99G, L107V
B6: VG9B372 (antibody, human IgG1, kappa, V domains shown)
VH: QVQLQESGPGLVKPSQTLSLTCTVSGGSISNGGFYWSWIRQHPGKGLEWLGYINYSGSTYYNPSLESRGTISLDTSKNQFSLKLRSVTAADTAVYYCARDRNYEWNFDLWGRGTLVTVSS
VL: EIVMTQSPATLSLSPGEGATLSCRASQSVSSYLAWYQQKPGQAPRLLVYDASNRATGIPARFSGSGSGTAFTLTITSLEPEDFVVYYCQQRSNWPLTFGGGTKLEIKR
B7: VG9B87 (antibody, human IgG1, kappa, V domains shown)
VH: QVQLVESGAEVKKPGASVKVSCKASGYTFTSEYIHWVRQAPGQGLEWMGIINPSGGSTSYAQRFQGRVTMTRDTSTSTVYMEVNSLRSEDTAVYYCARERGYSYGSFDYWGQGTLVTVSS
VL: EIVLTQSPSFLSASAGDRVTITCRASQGISSYLAWYQQKPEKAPKLLIYAASTLQSGVPSRFSGSGSGTEFTLTISSLQPEDFATYYCQQFNSYSLTFGGGTKLEIKR
B8: VG9B103 (antibody, human IgG1, kappa, V domains shown)
VH: EVQLVQSGAEVKKPGSSVKVSCKTSGGTFSSYAISWVRQAPGQGLEWMGGIIPIFGTATYAQKFQDRVTITADKSTSTAYMELSSLRSEDTAVFYCARGVGWGTDYYYGLDVWGQGTTVTVSS
VL: ETTLTQSPLSSPVTLGQPASISCRSSQGLVHSDGNTYLSWLQQRPGQSPRLLIYKISNRFSGVPDRFSGSGAGTDFTLKISRVEAEDVGVYYCMQATHHPLTFGGGTKVEIKR
B9: VG9B147 (antibody, human IgG1, lambda, V domains shown)
VH: QVQLQESGPGLVNPSETLSLTCTVSGGSISGYFWNWIRQPPGKGLEWIGYIFYSGSTNYNPSLKSRVTISVDTSKNQFSLKLSSVTAADTAIYYCAREGKWELRSTFDIWGQGTMVTVSS
VL: SSELTQDPAVSVALGQTVRITCQGDSLRSYYATWYQQKPGQAPILVIYGENNRPSGIPDRFSGSRSGNTASLTITGAQAEDEADYYCNSRDTGDHHLVFGGGTKLTVLG
B10: VG9B163 (antibody, human IgG1, lambda, V domains shown)
VH: QVQLVQSGGGLVKPGASLKLSCAASGFTFSNHGMSWVRQTSDKRLEWVASITRGGDTTYYPDNVKGRFTISRENAKNTLYLQMSSLKSDDTALYYCTRGPLTVGYAMDYWGQGTTVTVSS
VL: QLVLTQPPSVSAAPGQKVTISCSGNSSNIGHNYVSWYQQLPGTAPKLLIYDNNQRPSGIPDRFSGSKSDTSATLGITGLQTGDEADYYCGIWDSSLSIVVFGGGTKVTVLG
B11: VG9B177 (antibody, human IgG1, lambda, V domains shown)
VH: QVQLQESGPGLVKPSETLSLTCTVSGGSINNYFWSWIRQPPGKGLEWIGYIFYSGSTNYNPSLKSRVTISIDTSKNQFSLKVNSVTAADTAVYYCARVGKWELRTAFDIWGQGTMVTVSS
VL: QSALTQPASVSGSPGQSITISCTGTSSDVADYNYVSWYQQHPGKAPKLMIYEVSNRPSGVSNRFSGSKSGNTASLTISGLQAEDEADYYCCSYTSSFTVVFGGGTKVTVLG
B12: VG9B470 (antibody, human IgG1, kappa, V domains shown)
VH: QVTLKESGPTLVKPTQTLTLTCTFSGFSLTTSGVGVGWIRQPPGKALEWLALILWNDHTIYSPSLKSRLTITKDTSKNQVVLTMTNMDPVDTAAYFCARDKWELRDAFDIWGQGTMVTVSS
VL: EIVMTQSPSFLSASVGDRVTFTCRASQGISRYLAWYQQKPGRAPNLLIYVASTLQSGVPSRFSGSGSGTEFTLTISSLLPEDFATYYCQQLISYPYTFSQGTRLEIKR
B13: VG9B383 (antibody, human IgG1, lambda, V domains shown)
VH: QVQLQESGPGLVKPSETLSLTCTVSSGSISSYYWNWIRQPAGKGLEWVGRIYTIGNTNYNPSLKSRVTMSIDTSKNQFSLNLSSVTAADTAVYFCAREGYYDSSGSFFPGAFGIWGQGTMVTVSS
VL: SSELTQPASVSGSPGQSITISCTGTSNDVGSYNLVSWYQQHPGKAPKLMIYAGSKRPSGISNRFSGSKSGNTASLTISGLQAEDEADYYCCSFAGATNVVFGGGTKLTVLG
B14: VG9B201 (antibody, human IgG1, lambda, V domains shown)
VH: QVTLKESGPTLVKPTQTLTLTCTFSGFSLTTHGVGVGWIRQPPRKALEWLALIYWNADKHYSPSLKSRLTITKDTSKNQVVLTMTHMDPVDTATYYCAHEGDWGHYFDFWGQGTLVTVSS
VL: QLVLTQPPSVSAAPGQKVTISCSGSSSNIGNNDVSWYQQLPGTAPKLLIYDNNRRPSGIPDRFSGSKSGTSATLGITGLQTGDEADYYCETWDSSLSAIWVFGGGTKVTVLG
B15: VG9B411 (antibody, human IgG1, kappa, V domains shown)
VH: EVQLVESGGGLVKPGGSLRLSCSASGFTFSNYDMNWVRQAPGKGLEWVSSISSSSSYIYYADSVKGRFTISRDNAKNSLYLQMNSLRAEDTAVYHCARDVGVTTDYYYYGMDVWGQGTTVTVSS
VL: EIVMTQSPSSVSASVGDRVTITCRASQGINSWLAWYQQDPYKAPKLLIYAASTLQSGVPSRFGGRGSGTEFTLTISSLQPEDFAVYYCQQYNNWPRTFGQGTKVDIKR
B16: VG9B396 (antibody, human IgG1, lambda, V domains shown)
VH: EVQLVESGPGLVQPSETLSLTCTVSGDSIRGYYWNWIRQPAGKGLEWIGRIFTTGNTNYNPSLKSRLTMSLDTSKNQFSLKLNSVTAADTAVYYCAREKWDSSSSALYFDFWGQGTLVTVSS
VL: QSVLTQAPSVSGAPGQRVTISCTGSSSNIGADYDVKWYQQLPGTAPKLLIYGNTDRPSGVPDRFSGSKSGTSASLAITGLQAEDEADYYCQSYDSRLTGYVVFGGGTKLTVLG

16 molecules from patent US20220125947A1 can be followed below.

Substitutions are numbered along the chain they refer to.

Chain of Vg5/Vd2 T cell receptor on SKW3 cells (A0JD36 20-115): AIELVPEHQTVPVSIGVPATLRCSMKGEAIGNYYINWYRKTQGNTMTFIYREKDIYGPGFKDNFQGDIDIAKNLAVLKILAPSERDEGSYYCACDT
Chain of Vg9/Vd1 T cell receptor on SKW3 cells (Q99603 21-122): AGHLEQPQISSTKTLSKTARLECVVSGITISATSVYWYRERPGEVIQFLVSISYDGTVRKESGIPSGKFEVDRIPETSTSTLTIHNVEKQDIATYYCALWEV

The target in the first assay is Vg9/Vd2 T cell receptor expressed on SKW3_4 cells (UniProt Q99603). The assay can be described thus: flow cytometry, dose-response binding at 37 C, SKW3_4 cells expressing Vg9/Vd2. On the technique in general: Flow cytometry measures light scatter and fluorescence of single cells or particles in a stream.
Chain of Vg9/Vd2 T cell receptor expressed on SKW3_4 cells (Q99603 21-122, chain 1 of 2): as the sequence (Q99603 21-122) above
Chain of Vg9/Vd2 T cell receptor expressed on SKW3_4 cells (A0JD36 20-115, chain 2 of 2, further chain): as the sequence (A0JD36 20-115) above
Turning to B1, the Max. Activity (fold over background) is 164.
In turn, B2 yielded a Max. Activity (fold over background) of 176.
The molecule B3 showed a Max. Activity (fold over background) of 42.2.
Turning to B4, the Max. Activity (fold over background) was 177.
Same read-out and setting: as for B5, the figure is 143; as for B6, 127; as for B7, 139.
B8: the Max. Activity (fold over background) was found to be 96.4.
With B9, the Max. Activity (fold over background) was 30.5.
Still for that read-out and setting: in the case of B10 it was 57.2; in that of B11, 161.

The next assay has as its target Vg5/Vd2 T cell receptor on SKW3 cells (UniProt A0JD36). The assay can be described thus: flow cytometry, DRC binding at 37°C on SKW3 cells expressing Vg5/Vd2.
B12 displayed a Max. Activity (fold over background) of 231.
Same read-out and setting: in the case of B13 it was 284; in that of B14, 205.
Turning to B15, the Max. Activity (fold over background) came to 2.76.
Consider B16, for which the Max. Activity (fold over background) turned out to be 222.

The target in another assay is Vg5/Vd2 T cell receptor expressed on SKW3 cells (UniProt A0JD36). The assay can be described thus: flow cytometry, dose-response binding at 37 C, SKW3 cells expressing Vg5/Vd2.
Chain of Vg5/Vd2 T cell receptor expressed on SKW3 cells (A0JD36 20-115): as above
In turn, B1 displayed a Max. Activity (fold over background) of 233.
On the same count and under the same terms, in the case of B2 it was 226; in that of B3, 77; in that of B4, 203.
Take B5: the Max. Activity (fold over background) was determined as 194.
Molecule B6 came in with a Max. Activity (fold over background) of 171.
B7: the Max. Activity (fold over background) was 51.6.
Regarding B8, the Max. Activity (fold over background) came to 237.
Regarding B9, the Max. Activity (fold over background) stood at 69.8.
On the same count and under the same terms, in the case of B10 it was 48.9.
For the molecule B11, the Max. Activity (fold over background) came to 193.

Another assay concerns the target Vg9/Vd1 T cell receptor on SKW3 cells (UniProt Q99603). The assay can be described thus: flow cytometry, DRC binding at 37°C on SKW3 cells expressing Vg9/Vd1.
With B12, the Max. Activity (fold over background) was found to be 1.59.
Take B13: the Max. Activity (fold over background) turned out to be 1.36.
In turn, B14 gave a Max. Activity (fold over background) of 2.74.
With B15, the Max. Activity (fold over background) was found to be 24.9.
B16 had a Max. Activity (fold over background) of 2.19.

In another assay the target is Vg9/Vd2 T cell receptor on SKW3_4 cells (UniProt Q99603). In words: flow cytometry, DRC binding at 37°C on SKW3_4 cells expressing Vg9/Vd2.
Chain of Vg9/Vd2 T cell receptor on SKW3_4 cells (Q99603 21-122, chain 1 of 2): as the sequence (Q99603 21-122) above
Chain of Vg9/Vd2 T cell receptor on SKW3_4 cells (A0JD36 20-115, chain 2 of 2, further chain): as the sequence (A0JD36 20-115) above
B12 displayed a Max. Activity (fold over background) of 167.
Still for that read-out and setting: as for B13, the figure is 184.
In turn, B14 showed a Max. Activity (fold over background) of 152.
In the case of B15, the Max. Activity (fold over background) was found to be 19.1.
B16 had a Max. Activity (fold over background) of 155.

In another assay the target is Vg9/Vd1 T cell receptor expressed on SKW3 cells (UniProt Q99603). The assay can be described thus: flow cytometry, dose-response binding at 37 C, SKW3 cells expressing Vg9/Vd1.
Chain of Vg9/Vd1 T cell receptor expressed on SKW3 cells (Q99603 21-122): as the sequence (Q99603 21-122) above
Take B1: the Max. Activity (fold over background) was determined as 11.6.
Molecule B2 showed a Max. Activity (fold over background) of 8.38.
The molecule B3 showed a Max. Activity (fold over background) of 1.17.
The molecule B4 displayed a Max. Activity (fold over background) of 2.15.
The molecule B5 displayed a Max. Activity (fold over background) of 1.3.
B6 yielded a Max. Activity (fold over background) of 1.02.
Turning to B7, the Max. Activity (fold over background) stood at 1.4.
B8 showed a Max. Activity (fold over background) of 1.79.
In turn, B9 had a Max. Activity (fold over background) of 1.59.
The molecule B10 registered a Max. Activity (fold over background) of 10.6.
Take B11: the Max. Activity (fold over background) came to 1.28.
